Measured values: patent publication US20130143798A1 (Novo Nordisk, published 2013)
Numbered stars: 1 amine (or outer) side, 2 acyl side, 3 side chain; on linkers, the order of the positions; unused ones are H or OH. Square brackets hold non-standard residues; d marks the D form. Side chains are listed from the residue outwards. Ends that are not written are not given here. * marks the point of attachment. C18 diacid = O=C(O)CCCCCCCCCCCCCCCCC(=O)*; γGlu = O=C(O)[C@H](CCC(=O)[*:2])N[*:1]; AEEA = NCCOCCOCC(=O)O

B1: N^α-([Leu^27]Glucagonyl) … (peptide)
peptide: HSQGTFTSDYSKYLDSRRAQDFVQWLLNTK
modifications: C-terminal Lys (position 30): N-epsilon acylated with the substituent printed in the name

target: T1, glucagon receptor (UniProt P47871 26-477, limits assumed); assay: cell-based or functional assay
T1 sequence (P47871 26-477 limits assumed): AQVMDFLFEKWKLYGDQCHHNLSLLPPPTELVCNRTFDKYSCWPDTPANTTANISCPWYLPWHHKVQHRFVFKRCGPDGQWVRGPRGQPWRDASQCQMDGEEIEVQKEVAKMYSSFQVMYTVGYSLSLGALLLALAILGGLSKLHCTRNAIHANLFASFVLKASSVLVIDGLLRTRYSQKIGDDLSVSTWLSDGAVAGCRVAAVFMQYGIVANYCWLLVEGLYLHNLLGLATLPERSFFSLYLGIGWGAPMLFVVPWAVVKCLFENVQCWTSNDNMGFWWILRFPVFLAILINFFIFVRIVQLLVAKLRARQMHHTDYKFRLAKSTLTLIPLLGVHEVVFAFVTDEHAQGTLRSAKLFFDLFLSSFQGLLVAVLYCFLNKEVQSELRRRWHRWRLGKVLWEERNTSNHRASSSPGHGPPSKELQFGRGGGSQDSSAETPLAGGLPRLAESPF

Point of comparison: HSQGTFTSDYSKYLDSRRAQDFVQWLLK([γGlu-γGlu-AEEA-AEEA-γGlu-C18 diacid])T, “Assay (I) Glucagon [EC50]” value 55 pM. Against it:
- HSQGTFTSDYSKYLDSRRAQDFVQWLLNK([γGlu-γGlu-AEEA-AEEA-γGlu-C18 diacid]) — 1.7-fold higher, 95 pM
- B1 — within 1.5-fold, 56 pM

target: T1, glucagon receptor; assay: cell-based or functional assay; remark: another data set of the same source

Point of comparison: HSQGTFTSDYSRYLDSRRAQDFVQWLK([γGlu-γGlu-AEEA-AEEA-γGlu-C18 diacid])NP, “Assay (I) Glucagon [EC50]” value 2110 pM. Against it:
- HSQGTFTSDYSKYLDK([AEEA-AEEA-γGlu-γGlu-γGlu-C18 diacid])RRAQDFVQWLLNT — 26-fold lower, 81 pM
- HSQGTFTSDYSK([γGlu-γGlu-AEEA-AEEA-γGlu-C18 diacid])YLDSRRAQDFVQWLLNP — within 1.5-fold, 1580 pM
- HSQGTFTSDYSKYLDSRRAQDFVQWLLK([γGlu-γGlu-AEEA-AEEA-γGlu-C18 diacid])T — 38-fold lower, 55 pM
- HSQGTFTSDYSKYLDSRRAQDFVQWLLNK([γGlu-γGlu-AEEA-AEEA-γGlu-C18 diacid]) — 22-fold lower, 95 pM
- HSQGTFTSDYSKYLDK([γGlu-γGlu-AEEA-AEEA-γGlu-C18 diacid])RRAQDFVQWLLNT — 20-fold lower, 105 pM
- HSQGTFTSDYSKYLDSRRAQDFVQWLLK([γGlu-γGlu-AEEA-AEEA-γGlu-C18 diacid])TP — 16-fold lower, 128 pM
- HSQGTFTSDYSKYLDSRRAQDFVKWLLNTP (Lys 24: N-epsilon acylated with the substituent printed in the name) — 15-fold lower, 142 pM
- HSQGTFTSDYSKYLDSRRAQDFVK([γGlu-γGlu-γGlu-C18 diacid])WLLST — 22-fold lower, 94 pM
- HSQGTFTSDYSKYLDSRRAEEFVK([γGlu-γGlu-AEEA-γGlu-C18 diacid])WLLST — 18-fold lower, 120 pM
- B1 — 38-fold lower, 56 pM
- HSQGTFTSDYSKYLDSRRAQDFVQWLLK([γGlu-γGlu-AEEA-AEEA-γGlu-C18 diacid])P — 11-fold lower, 189 pM
- HSQGTFTSDYSKYLDSRRAQDFVQWLK([γGlu-γGlu-AEEA-AEEA-γGlu-C18 diacid])NP — 1.8-fold lower, 1170 pM
- HSQGTFTSDYSKYLDSRRAQDFVQK([γGlu-γGlu-AEEA-AEEA-γGlu-C18 diacid])LLNT — 2.1-fold lower, 988 pM
- HSQGTFTSDYSRYLDSRRAQDFVK([γGlu-γGlu-AEEA-AEEA-γGlu-C18 diacid])WLLNT — 17-fold lower, 127 pM
- HSQGTFTSDYSKYLDK([γGlu-AEEA-AEEA-γGlu-γGlu-C18 diacid])RRAQDFVQWLLNT — 17-fold lower, 122 pM
- HSQ[dF]TFTSDYSKYLDSRRAQDFVK([γGlu-γGlu-AEEA-AEEA-γGlu-C18 diacid])WLLST — 48-fold lower, 44 pM
- HSQGTFTSDYSKYLDSRRAK([γGlu-γGlu-AEEA-AEEA-γGlu-C18 diacid])DFVQWLLNT — 36-fold lower, 58 pM
- HSQGTFTSEYSKYLDSRRAQDFVK([γGlu-γGlu-AEEA-γGlu-C18 diacid])WLLST — within 1.5-fold, 2200 pM
- HSQGTFTSDYSKYLDSRRAQDFVQWLLK([γGlu-γGlu-γGlu-C18 diacid])T — 15-fold lower, 141 pM
- HSQGTFTSDYSKYLDSRRAQDFVK([γGlu-γGlu-AEEA-AEEA-γGlu-C18 diacid])WLLNP — 14-fold lower, 156 pM
- HSQGTFTSDYSKYLDSRRAQEFVK([γGlu-γGlu-AEEA-γGlu-C18 diacid])WLLST — 40-fold lower, 53 pM
